Literature values in paper PMC5855594, “Poly-N-Acetyllactosamine Neo-Glycoproteins as Nanomolar Ligands of Human Galectin-3: Binding Kinetics and Modeling” (International Journal of Molecular Sciences, 2018).

Columns and labels:
[1] = biological target: BSA neo-glycoprotein 15 (Bos taurus) (UniProt P02769); assay: ELISA
[2] = biological target: BSA neo-glycoprotein 13 (Bos taurus) (UniProt P02769); assay: ELISA
[3] = biological target: BSA neo-glycoprotein 11 (Bos taurus) (UniProt P02769); assay: ELISA
Chain of BSA neo-glycoprotein 11 (Bos taurus) (P02769 25-607): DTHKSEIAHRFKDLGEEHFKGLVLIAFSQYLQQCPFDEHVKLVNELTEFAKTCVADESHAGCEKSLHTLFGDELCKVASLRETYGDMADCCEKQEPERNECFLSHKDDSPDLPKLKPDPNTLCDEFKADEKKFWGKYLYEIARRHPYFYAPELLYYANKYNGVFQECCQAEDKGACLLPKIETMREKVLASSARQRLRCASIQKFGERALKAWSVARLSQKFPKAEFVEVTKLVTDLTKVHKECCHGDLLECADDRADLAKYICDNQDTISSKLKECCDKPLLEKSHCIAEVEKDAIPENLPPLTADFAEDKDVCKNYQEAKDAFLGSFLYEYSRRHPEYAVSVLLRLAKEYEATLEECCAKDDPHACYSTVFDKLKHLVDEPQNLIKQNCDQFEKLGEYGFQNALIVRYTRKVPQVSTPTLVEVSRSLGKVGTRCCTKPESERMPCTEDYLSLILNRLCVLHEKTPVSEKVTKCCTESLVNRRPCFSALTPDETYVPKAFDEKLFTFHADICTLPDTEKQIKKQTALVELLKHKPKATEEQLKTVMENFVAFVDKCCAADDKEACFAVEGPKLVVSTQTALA

[4] = biological target: BSA neo-glycoprotein 12 (Bos taurus) (UniProt P02769); assay: ELISA
Chain of BSA neo-glycoprotein 12 (Bos taurus) (P02769 25-607): as above

[5] = biological target: BSA neo-glycoprotein 16 (Bos taurus); assay: ELISA
Chain of BSA neo-glycoprotein 16 (Bos taurus) (P02769 25-607): as above

[6] = biological target: BSA neo-glycoprotein 14 (Bos taurus) (UniProt P02769); assay: ELISA
Chain of BSA neo-glycoprotein 14 (Bos taurus) (P02769 25-607): as above

[7] = biological target: BSA neo-glycoprotein 15 (Bos taurus) (UniProt P02769); assay: competitive ELISA
[8] = biological target: BSA neo-glycoprotein 13 (Bos taurus) (UniProt P02769); assay: competitive ELISA
[9] = biological target: BSA neo-glycoprotein 16 (Bos taurus); assay: competitive ELISA
[10] = biological target: BSA neo-glycoprotein 14 (Bos taurus) (UniProt P02769); assay: competitive ELISA
[11] = biological target: Asialofetuin (Bos taurus) (UniProt P12763); assay: ITC
Chain of Asialofetuin (Bos taurus) (P12763 19-359): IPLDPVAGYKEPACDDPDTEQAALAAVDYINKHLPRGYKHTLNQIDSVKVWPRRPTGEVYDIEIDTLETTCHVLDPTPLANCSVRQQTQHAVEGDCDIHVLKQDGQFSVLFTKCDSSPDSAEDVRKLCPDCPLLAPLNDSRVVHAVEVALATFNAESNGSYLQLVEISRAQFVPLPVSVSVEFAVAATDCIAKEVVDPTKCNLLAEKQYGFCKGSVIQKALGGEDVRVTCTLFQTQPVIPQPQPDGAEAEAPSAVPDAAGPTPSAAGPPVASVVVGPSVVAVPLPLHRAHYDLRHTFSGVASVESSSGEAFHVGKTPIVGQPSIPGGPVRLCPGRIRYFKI

Chain of Galectin-3 (P17931 2-250): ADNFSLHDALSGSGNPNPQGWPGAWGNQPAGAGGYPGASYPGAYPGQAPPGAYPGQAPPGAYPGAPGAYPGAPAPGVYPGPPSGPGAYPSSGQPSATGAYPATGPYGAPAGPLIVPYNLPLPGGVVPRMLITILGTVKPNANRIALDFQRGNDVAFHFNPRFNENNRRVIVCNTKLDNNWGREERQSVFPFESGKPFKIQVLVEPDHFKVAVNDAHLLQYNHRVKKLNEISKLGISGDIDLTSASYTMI
Chain of BSA neo-glycoprotein 15 (Bos taurus) (P02769 25-607): as the sequence (P02769 25-607) above
Chain of BSA neo-glycoprotein 13 (Bos taurus) (P02769 25-607): as above

In the case of Galectin-3 (from UniProt P17931), the Kd [1] is listed as 700 nM, the Kd [2] is listed as 76 nM and the Kd [3] is listed as 30 nM. The Kd [4] was 300 nM, the Kd [5] was 290 nM and the Kd [6] was 350 nM. The IC50 [7] was 212 nM, the IC50 [8] was 37 nM and the IC50 [9] was 65 nM. The IC50 [10] was 76 nM and the Kd [11] was 7.14 nM.
